Laboratory results published in patent US20050164345A1, “Synthesis of human procollagens and collagens in recombinant DNA systems” (priority 1992, published 2005).
Where two headings read alike, the source gives them in different places.

B1: proα1 chains of type III procollagen: type III procollagen expressed in insect cells without recombinant prolyl 4-hydroxylase (protein, UniProt P02461 24-1466, looked up)
pro-form: QQEAVEGGCSHLGQSYADRDVWKPEPCQICVCDSGSVLCDDIICDDQELDCPNPEIPFGECCAVCPQPPTAPTRPPNGQGPQGPKGDPGPPGIPGRNGDPGIPGQPGSPGSPGPPGICESCPTGPQNYSPQYDSYDVKSGVAVGGLAGYPGPAGPPGPPGPPGTSGHPGSPGSPGYQGPPGEPGQAGPSGPPGPPGAIGPSGPAGKDGESGRPGRPGERGLPGPPGIKGPAGIPGFPGMKGHRGFDGRNGEKGETGAPGLKGENGLPGENGAPGPMGPRGAPGERGRPGLPGAAGARGNDGARGSDGQPGPPGPPGTAGFPGSPGAKGEVGPAGSPGSNGAPGQRGEPGPQGHAGAQGPPGPPGINGSPGGKGEMGPAGIPGAPGLMGARGPPGPAGANGAPGLRGGAGEPGKNGAKGEPGPRGERGEAGIPGVPGAKGEDGKDGSPGEPGANGLPGAAGERGAPGFRGPAGPNGIPGEKGPAGERGAPGPAGPRGAAGEPGRDGVPGGPGMRGMPGSPGGPGSDGKPGPPGSQGESGRPGPPGPSGPRGQPGVMGFPGPKGNDGAPGKNGERGGPGGPGPQGPPGKNGETGPQGPPGPTGPGGDKGDTGPPGPQGLQGLPGTGGPPGENGKPGEPGPKGDAGAPGAPGGKGDAGAPGERGPPGLAGAPGLRGGAGPPGPEGGKGAAGPPGPPGAAGTPGLQGMPGERGGLGSPGPKGDKGEPGGPGADGVPGKDGPRGPTGPIGPPGPAGQPGDKGEGGAPGLPGIAGPRGSPGERGETGPPGPAGFPGAPGQNGEPGGKGERGAPGEKGEGGPPGVAGPPGGSGPAGPPGPQGVKGERGSPGGPGAAGFPGARGLPGPPGSNGNPGPPGPSGSPGKDGPPGPAGNTGAPGSPGVSGPKGDAGQPGEKGSPGAQGPPGAPGPLGIAGITGARGLAGPPGMPGPRGSPGPQGVKGESGKPGANGLSGERGPPGPQGLPGLAGTAGEPGRDGNPGSDGLPGRDGSPGGKGDRGENGSPGAPGAPGHPGPPGPVGPAGKSGDRGESGPAGPAGAPGPAGSRGAPGPQGPRGDKGETGERGAAGIKGHRGFPGNPGAPGSPGPAGQQGAIGSPGPAGPRGPVGPSGPPGKDGTSGHPGPIGPPGPRGNRGERGSEGSPGHPGQPGPPGPPGAPGPCCGGVGAAAIAGIGGEKAGGFAPYYGDEPMDFKINTDEIMTSLKSVNGQIESLISPDGSRKNPARNCRDLKFCHPELKSGEYWVDPNQGCKLDAIKVFCNMETGETCISANPLNVPRKHWWTDSSAEKKHVWFGESMDGGFQFSYGNPELPEDVLDVHLAFLRLLSSRASQNITYHCKNSIAYMDQASGNVKKALKLMGSNEGEFKAEGNSKFTYTVLEDGCTKHTGEWSKTVFEYRTRKAVRLPIVDIAPYDIGGPDQEFGVDVGPVCFL
modifications: pro-form
notes: type III procollagen expressed in insect cells without recombinant prolyl 4-hydroxylase

Columns and labels:
[1] = system: prolyl 4-hydroxylase; assay: Km values of prolyl 4-hydroxylase, assay based on decarboxylation of 2-oxo[1-14C]glutarate; assay type: biochemical, human; details: other substrates held constant
Method: When the time course of protein expression was examined, Sf9 cells infected with recombinant viruses were labeled with [^35S]methionine (10 μCi/μl; Amersham; 1 Ci=[…]) for 2 hours at various time points between 24 and 50 hours after infection and collected for analysis by SDS/10% PAGE. To determine the maximal accumulation of recombinant protein, cells were harvested at various times from 24 to 96 hours after infection and analyzed on by SDS/10% PAGE. Both the 0.1% Triton X-100- and 1% SDS-soluble fractions of the cells were analyzed. Prolyl 4-hydroxylase activity was assayed by a method based on the decarboxylation of 2-oxo[1-^14C^−]glutarate (Kivirikko et al., Methods in Enzymology 82: 245-304 (1982)). The Km values were determined by varying the concentrations of one substrate in the presence of fixed concentration of the second, while the concentrations of the other substrates were held constant (Myllyla et al., Eur. J. Biochem. 80: 349-357 (1977)). Protein disulfide-isomerase activity of the β subunit was measured by glutathione: insulin transhydrogenase assay (Carmichael et al., J. Biol. Chem. 252: 7163-7167 (1977)). Western blot analysis was performed using a monoclonal antibody, 5B5, to the β subunit of human prolyl 4-hydroxylase (Hoyhtya et al., Eur. J. Biochem. 141: 477-482 (1984)). Prolyl 4-hydroxylase was purified by a procedure consisting of poly (L-proline) affinity chromatography, DEAE-cellulose chromatography, and gel filtration (Kivirikko et al., Methods in Enzymology 144: 96-114 (1987)).
Table 2 presented data on the enzymic activity of the recombinant enzyme. The Km values were determined by varying the concentration of one substrate in the presence of fixed concentrations of the second while the concentration of the other substrates were held constant.

[2] = thermal stability of type III collagen produced in insect cells, trypsin/chymotrypsin digestion after heating to various temperatures; assay type: physicochemical
Method: Other aliquots were studied by a radioimmuno-assay for the trimeric N-propeptide of human type III procollagen (Farmos Diagnostica) and a colorimetric method for 4-hydroxyproline (Kivirikko et al., Anal. Biochem. 19: 249-255 (1967)). Still further aliquots were digested with pepsin for 1 h at 22° C. (Bruckner et al., Anal. Biochem. 110: 360-368 (1981)), and the thermal stability of the pepsin-resistant recombinant type III collagen was measured by rapid digestion with a mixture of trypsin and chymotrypsin.
The thermal stability of the type III collagen expressed under different cell culture conditions was studied by using digestion with a mixture of trypsin and chymotrypsin after heating to various temperatures (Bruckner, et al., Anal. Biochem. 110: 360-368 (1981)). High Five cells were infected with viruses coding for the proα1 (III) chains and the a and β subunits of human prolyl 4-hydroxylase. The cells were harvested 72 h after infection, homogenized in a buffer containing 0.2% Triton X-100 and centrifuged. In these experiments, ascorbate was either added daily to the cell culture medium as usual or omitted during the infection. The Triton X-100 soluble proteins were first digested with pepsin for 1 h at 22° C. to convert type III procollagen to type III collagen (Pihlajaniemi et al., EMBO J. 6: 643-649 (1987)), and the trypsin/chymotrypsin digestion was then performed for aliquots of the pepsin-treated samples. The samples were then electrophoresed on 8% SDS-PAGE and analyzed by Coomassie staining. FIG. 11 provides the results of this thermal stability for a variety of collagen products. As set forth in panel A, the cells were infected only with the virus coding for the proα1 (III) chains, and ascorbate was omitted from the culture medium; panel B, the cells were infected only with the virus coding for the proα1 (III) chains, and ascorbate was present in the culture medium as usually; panel C, the cells were coinfected with viruses coding for the proα1 (III) chains, and the α and β subunits of prolyl 4-hydroxylase, but ascorbate was omitted from the culture medium; and panel D, the cells were infected with the three viruses, and ascorbate was present in the culture medium. […] The arrows show the position of the α1 (III) chains. […] (FIG. 11A). […] In contrast, when the proα1 (III) chains were produced in the presence of both prolyl 4-hydroxylase and ascorbate, the Tm of type III collagen was increased considerably, being at about 38-40° C. (FIG. 11D).

[3] = CD spectrum analysis of purified recombinant type III collagen; assay type: physicochemical
Method: Type III procollagen was expressed in High Five cells cultured either as monolayers or in suspension in shaker flasks. The cells were harvested 72 h after infection, homogenized in a buffer containing 0.1% Triton X-100 and centrifuged, and the supernatant of the cell homogenate was passed through a DEAE cellulose column to remove nucleic acids. The flow through fractions containing the type III procollagen were pooled and digested with pepsin. This converted the type III procollagen to type III collagen and digested most of the noncollagenous proteins. The type III collagen was then concentrated by salt precipitation, solubilized and treated with pepsin as above. The type III collagen was finally separated from pepsin and other remaining contaminants by gel filtration on a Sephacryl S 500-HR column. The fractions containing the type III collagen were pooled, dialyzed and lyophilized. The purified type III collagen was analyzed by 5% SDS-PAGE under reducing (FIG. 9, lane 2) and nonreducing (FIG. 9, lane 3) conditions. […] Amino acid and CD spectrum analysis were performed on the purified type III collagen. The amino acid composition of the recombinant type III obtained corresponded well with the amino acid composition reported for human type III collagen. […] The melting temperature of the recombinant type III collagen determined by CD spectrum analysis was 40° C.

[4] = protease digestion and thermal stability of recombinant type II human collagen from insect cells; assay type: physicochemical; details: expressed in recombinant insect cells
Method: Purification and analysis of Collagen Types I and II. Collagens types I and II were purified as described supra.
The thermal stability of the recombinant type II human collagen expressed from the recombinant insect cells was measured and compared with native type I human collagen. […] The Tm of the recombinant type II collagen was up to about 40° C.

[5] = substrate 2-oxoglutarate, read-out: Km value, 2-oxoglutarate
[6] = substrate (Pro—Pro-Gly)10, read-out: Km value, (Pro—Pro-Gly)10
[7] = substrate Fe^+2, read-out: Km value, Fe^+2
[8] = substrate ascorbate, read-out: Km value, ascorbate

| Molecule | Km [1, 5] [µM] | Km [1, 6] [µM] | Km [1, 7] [µM] | Km [1, 8] [µM] | further results |
| --- | --- | --- | --- | --- | --- |
| α582β2: recombinant human prolyl 4-hydroxylase tetramer from Sf9 cells infected with α58 virus and β virus | 22 | 18 | 4 | 330 | – |
| recombinant type III collagen: recombinant human type III collagen produced in insect cells, pepsin-converted from type III procollagen | – | – | – | – | effect on the thermal stability ([2]; High Five cells, either ascorbate or prolyl 4-hydroxylase present without the other (FIG. 11B and 11C)): virtually no increasing effect; Tm of type III collagen ([2]; High Five cells, proα1 (III) chains expressed without prolyl 4-hydroxylase and ascorbate (FIG. 11A)): 32-34 °C; Tm of type III collagen ([2]; High Five cells, proα1 (III) chains produced in the presence of both prolyl 4-hydroxylase and ascorbate (FIG. 11D)): 38-40 °C; Tm of the triple helices by CD spectra compared with authentic type III collagen ([3]; purified human type III collagen produced in insect cells): virtually identical; melting temperature determined by CD spectrum analysis ([3]; purified type III collagen from High Five cells): 40 °C |
| α592β2: recombinant human prolyl 4-hydroxylase tetramer from Sf9 cells infected with α59 virus and β virus | 25 | 18 | 4 | 330 | – |
| recombinant type II collagen: recombinant type II human collagen expressed from recombinant insect cells | – | – | – | – | Tm of the recombinant type II collagen [4]: up to 40 °C; trypsin and chymotrypsin digestion [4]: resistance to trypsin and chymotrypsin digestion |
| B1 | – | – | – | – | Tm of the triple helices, lower than procollagen produced in the presence of recombinant prolyl 4-hydroxylase ([2]; insect cells, without recombinant prolyl 4-hydroxylase): about 6 °C |
